From the supplement of paper PMC9233669
Variants at the floor of the assay were thinned out.

Legend:
biotinyl-Ile-oxazolone = assay: self-aminoacylation, catalytic enhancement (BIO) (fold over background); higher = more active; k-Seq, kA / k0A0; sequences stand for … in GGGAAUGGAUCCACAUCUACGAAUUC…UUCACUGCAGACUUGACGAAGCUG
In short: (§1)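 The uncatalyzed rate is the low-activity peak of a bimodal Gaussian fit, and catalytic enhancement is median kA divided by it. The kA values came from pseudo-first-order fits, with 1000 bootstraps, of per-sequence fraction reacted measured by streptavidin capture, triplicate qPCR and Illumina sequencing. Mutagenized RNA pools with a 21-nt variable region (0.43 μM) were reacted with each biotinyl-aminoacyl-oxazolone at 2–1250 μM in 50 μL HEPES/NaCl/KCl/MgCl2/CaCl2 buffer with 5% acetonitrile, pH 6.9–7.0, for 90 minutes at room temperature.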

biotinyl-Met-oxazolone = assay: self-aminoacylation, catalytic enhancement (BMO) (fold over background); higher = more active; k-Seq, kA / k0A0; sequences stand for … in GGGAAUGGAUCCACAUCUACGAAUUC…UUCACUGCAGACUUGACGAAGCUG
In short: as §1

biotinyl-Phe-oxazolone = assay: self-aminoacylation, catalytic enhancement (BFO) (fold over background); higher = more active; k-Seq, kA / k0A0; sequences stand for … in GGGAAUGGAUCCACAUCUACGAAUUC…UUCACUGCAGACUUGACGAAGCUG
In short: as §1

biotinyl-Val-oxazolone = assay: self-aminoacylation, catalytic enhancement (BVO) (fold over background); higher = more active; k-Seq, kA / k0A0; sequences stand for … in GGGAAUGGAUCCACAUCUACGAAUUC…UUCACUGCAGACUUGACGAAGCUG
In short: as §1

biotinyl-Trp-oxazolone = assay: self-aminoacylation, catalytic enhancement (BWO) (fold over background); higher = more active; k-Seq, kA / k0A0; sequences stand for … in GGGAAUGGAUCCACAUCUACGAAUUC…UUCACUGCAGACUUGACGAAGCUG
In short: as §1

biotinyl-Leu-oxazolone = assay: self-aminoacylation, catalytic enhancement (BLO) (fold over background); higher = more active; k-Seq, kA / k0A0; sequences stand for … in GGGAAUGGAUCCACAUCUACGAAUUC…UUCACUGCAGACUUGACGAAGCUG
In short: as §1

| Sequence | self-aminoacylation (biotinyl-Ile-oxazolone) | self-aminoacylation (biotinyl-Met-oxazolone) | self-aminoacylation (biotinyl-Phe-oxazolone) | self-aminoacylation (biotinyl-Val-oxazolone) | self-aminoacylation (biotinyl-Trp-oxazolone) | self-aminoacylation (biotinyl-Leu-oxazolone) |
| --- | --- | --- | --- | --- | --- | --- |
| AUUACCCUGUUCAGCGAGUGA [Fam2.1 aminoacylation ribozyme variant] | 2.51 | 5.05 | 14.4 | 2.96 | 6.39 | 4.4 |
| AUUACCCUGUUCAUCGCGUGA [Fam2.1 aminoacylation ribozyme variant] | 9.25 | 23.5 | 171 | 11.7 | 25.5 | 25.1 |
| AUUACCCUUGACAUCGAGUGA [Fam2.1 aminoacylation ribozyme variant] | 4.31 | 10.8 | 50.8 | 5.25 | 13.5 | 11 |
| AUUACCCUUGUCAACGAGUGA [Fam2.1 aminoacylation ribozyme variant] | 3.27 | 5.49 | 21.7 | 3.44 | 7.03 | 6.71 |
| AUUACCCUUGUCACCGAGUGA [Fam2.1 aminoacylation ribozyme variant] | 4.01 | 8.49 | 50.2 | 4.31 | 11.1 | 9.28 |
| AUUACCCUUGUCAUAGAGUGA [Fam2.1 aminoacylation ribozyme variant] | 4.36 | 8.7 | 36.6 | 4.59 | 11 | 8.53 |
| AUUACCCUUGUCAUCCAGUGA [Fam2.1 aminoacylation ribozyme variant] | 2.21 | 3.41 | 9.92 | 2.25 | 3.96 | 3.44 |
| AUUACCCUUGUCAUCGAGCGA [Fam2.1 aminoacylation ribozyme variant] | 1.49 | 1.12 | 0.755 | 1.19 | 0.631 | 1.67 |
| AUUACCCUUGUUAUCGAGUGA [Fam2.1 aminoacylation ribozyme variant] | 7.09 | 15.9 | 116 | 6.96 | 19.6 | 14.7 |
| AUUACCGUGGUCAUCCAGUGA [Fam2.1 aminoacylation ribozyme variant] | 3.52 | 5.39 | 28.8 | 3.32 | 6.67 | 5.29 |
| AUUACCGUGGUCAUCGAGAGA [Fam2.1 aminoacylation ribozyme variant] | 1.11 | 0.605 | 0.92 | 1.18 | 0.794 | 0.723 |
| AUUACCGUGGUCAUCGAGUAA [Fam2.1 aminoacylation ribozyme variant] | 1.42 | 1.35 | 1.2 | 1.58 | 1.93 | 1.56 |
| AUUACCGUGGUCAUCGUGUGA [Fam2.1 aminoacylation ribozyme variant] | 1.3 | 1.64 | 5.4 | 1.25 | 2.03 | 2.49 |
| AUUACCGUGGUCAUGGAGUGA [Fam2.1 aminoacylation ribozyme variant] | 2.27 | 3.21 | 12.2 | 2.37 | 3.69 | 3.43 |
| AUUACCUUGGACAUCGAGUGA [Fam2.1 aminoacylation ribozyme variant] | 3.16 | 5.7 | 26.3 | 2.9 | 7.94 | 6.08 |
| AUUACCUUGGUCAUCGAGUGG [Fam2.1 aminoacylation ribozyme variant] | 1.67 | 2.08 | 1.64 | 1.45 | 0.873 | 2.13 |
| AUUACCUUGGUCAUUGAGUGA [Fam2.1 aminoacylation ribozyme variant] | 4.08 | 8.51 | 32.4 | 4.11 | 10.2 | 7.89 |
| AUUACGCGGGUCAUCGAGUGA [Fam2.1 aminoacylation ribozyme variant] | 3.23 | 5.54 | 22.7 | 3.31 | 5.54 | 4.86 |
| AUUACGCUGGACAUCGAGUGA [Fam2.1 aminoacylation ribozyme variant] | 2.63 | 4.42 | 16.1 | 2.98 | 4.65 | 4.51 |
| AUUACGCUGGCCAUCGAGUGA [Fam2.1 aminoacylation ribozyme variant] | 4.5 | 6.9 | 32.4 | 4.76 | 8.46 | 5.89 |
| AUUACGCUGGUCAUAGAGUGA [Fam2.1 aminoacylation ribozyme variant] | 2.33 | 3.31 | 7.49 | 2.23 | 4.14 | 3.54 |
| AUUACGCUGGUCAUCCAGUGA [Fam2.1 aminoacylation ribozyme variant] | 2.27 | 3.63 | 12.8 | 1.96 | 4.31 | 3.99 |
| AUUACGCUGGUCAUCGAGUAA [Fam2.1 aminoacylation ribozyme variant] | 1.6 | 1.43 | 0.975 | 1.53 | 1.8 | 1.26 |
| AUUACGCUGGUCAUCGAGUGC [Fam2.1 aminoacylation ribozyme variant] | 1.02 | 1.44 | 1.4 | 1.33 | 1.24 | 1.31 |
| AUUACGCUGGUCAUCGGGUGA [Fam2.1 aminoacylation ribozyme variant] | 6.21 | 8.98 | 60.9 | 7.46 | 9.36 | 7.84 |
